The nature of test [1]: apigenin glucosylation acceptor reaction with recombinant glucansucrases (microplate screening). It is filed as biochemical. The settings on record: sucrose 146 mM, apigenin 2.5 mM, 3% DMSO, 30° C., 24 h; HPLC-UV 340 nm peak areas. The procedure:
(§1) The enzymatic extracts obtained are used to carry out the flavonoid glucosylation enzymatic screening reactions. The enzymatic activity of each centrifuged cell lysate is evaluated in the microplate format, by final weight after 30 minutes incubation in the presence of a final concentration of 146 mM of sucrose, by assaying the reducing sugars with 3,5-dinitrosalicylic acid (DNS). Finally, after dilution in ultrapure water, the absorbance is read at 540 nm.
(§2) The flavonoid acceptor reactions are then carried out in deep-well microplates, in a volume of 300 μl, at final concentrations of sucrose of 146 mM and of flavonoid of 2.5 mM (apigenin) or 5 mM (naringenin) (initially dissolved in 100% DMSO), and 140 μl of centrifuged cell lysate.
(§3) The final DMSO concentration in the reaction medium is 3% (v/v).
(§4) The incubation is carried out at 30° C. and at 700 rpm. After 24 hours, the enzymes are denatured at 95° C. for 15 minutes. These microplates are stored at −80° C. with a view to rapid evaluation of the flavonoid glucosylation by liquid-phase chromatography coupled to mass spectrometry (HPLC-MS or LC-MS).
(§5) With a view to their analyses by HPLC-MS, the extensively homogenized reaction media are diluted to 1/30th in DMSO. The separation of the flavonoids and of their glucosylated forms is carried out in reverse phase with a ProntoSlL Eurobond® 53×3.0 mm 120-3-C18-AQ column (porosity of 120 Å, particle size of 3 μm, C18 grafting, Bischoff Chromatography, Germany).
(§6) The flavonoid glucosylation efficiency was determined from the following formula: Glucosylation efficiency=(Σ(area of the peak of glucosylated flavonoid(s)))/(Σ(area of the peak of glucosylated flavonoid(s))+area of the peak of residual aglycone flavonoid)×100
The flavonoid glucosylation efficiencies, expressed as a percentage, were calculated from the areas of the peaks of the various products analyzed, as described in example 1, by HPLC with a UV detector (340 nm) after 24 h of reaction.

Test [2] can be described thus: naringenin glucosylation acceptor reaction with recombinant glucansucrases (microplate screening). It is filed as biochemical. The settings on record: sucrose 146 mM, naringenin 5 mM, 3% DMSO, 30° C., 24 h; HPLC-UV 340 nm peak areas. The procedure: as §1, §2, §3, §4, §5, §6
The flavonoid glucosylation efficiency was determined from the formula set out in example 2. The flavonoid glucosylation efficiencies, expressed as a percentage, were calculated from the areas of the peaks of the various products analyzed, as described in example 1, by HPLC with a UV detector (λ340 nm), after 24 h of reaction.

B1: V331L: ASNp amylosucrase single mutant (protein, UniProt Q9ZEU2 1-636, looked up, variant V331L)
Amylosucrase: MLTPTQQVGLILQYLKTRILDIYTPEQRAGIEKSEDWRQFSRRMDTHFPKLMNELDSVYGNNEALLPMLEMLLAQAWQSYSQRNSSLKDIDIARENNPDWILSNKQVGGVCYVDLFAGDLKGLKDKIPYFQELGLTYLHLMPLFKCPEGKSDGGYAVSSYRDVNPALGTIGDLREVIAALHEAGISAVVDFIFNHTSNEHEWAQRCAAGDPLFDNFYYIFPDRRMPDQYDRTLREIFPDQHPGGFSQLEDGRWVWTTFNSFQWDLNYSNPWVFRAMAGEMLFLANLGVDILRMDAVAFIWKQMGTSCENLPQAHALIRAFNAVMRIAAPALFFKSEAIVHPDQVVQYIGQDECQIGYNPLQMALLWNTLATREVNLLHQALTYRHNLPEHTAWVNYVRSHDDIGWTFADEDAAYLGISGYDHRQFLNRFFVNRFDGSFARGVPFQYNPSTGDCRVSGTAAALVGLAQDDPHAVDRIKLLYSIALSTGGLPLIYLGDEVGTLNDDDWSQDSNKSDDSRWAHRPRYNEALYAQRNDPSTAAGQIYQGLRHMIAVRQSNPRFDGGRLVTFNTNNKHIIGYIRNNALLAFGNFSEYPQTVTAHTLQAMPFKAHDLIGGKTVSLNQDLTLQPYQVMWLEIA
Regarding B1, the apigenin glucosylation efficiency in test [1] was found to be 0.3%. Further, the naringenin glucosylation efficiency in test [2] is given as 0.0%.

B2: V331M: ASNp amylosucrase single mutant (protein, UniProt Q9ZEU2 1-636, looked up, variant V331M)
Amylosucrase: MLTPTQQVGLILQYLKTRILDIYTPEQRAGIEKSEDWRQFSRRMDTHFPKLMNELDSVYGNNEALLPMLEMLLAQAWQSYSQRNSSLKDIDIARENNPDWILSNKQVGGVCYVDLFAGDLKGLKDKIPYFQELGLTYLHLMPLFKCPEGKSDGGYAVSSYRDVNPALGTIGDLREVIAALHEAGISAVVDFIFNHTSNEHEWAQRCAAGDPLFDNFYYIFPDRRMPDQYDRTLREIFPDQHPGGFSQLEDGRWVWTTFNSFQWDLNYSNPWVFRAMAGEMLFLANLGVDILRMDAVAFIWKQMGTSCENLPQAHALIRAFNAVMRIAAPAMFFKSEAIVHPDQVVQYIGQDECQIGYNPLQMALLWNTLATREVNLLHQALTYRHNLPEHTAWVNYVRSHDDIGWTFADEDAAYLGISGYDHRQFLNRFFVNRFDGSFARGVPFQYNPSTGDCRVSGTAAALVGLAQDDPHAVDRIKLLYSIALSTGGLPLIYLGDEVGTLNDDDWSQDSNKSDDSRWAHRPRYNEALYAQRNDPSTAAGQIYQGLRHMIAVRQSNPRFDGGRLVTFNTNNKHIIGYIRNNALLAFGNFSEYPQTVTAHTLQAMPFKAHDLIGGKTVSLNQDLTLQPYQVMWLEIA
B2: the apigenin glucosylation efficiency in test [1] was 0.1%. Besides, the naringenin glucosylation efficiency in test [2] was determined as 0.0%.

B3: V331P: ASNp amylosucrase single mutant (protein, UniProt Q9ZEU2 1-636, looked up, variant V331P)
Amylosucrase: MLTPTQQVGLILQYLKTRILDIYTPEQRAGIEKSEDWRQFSRRMDTHFPKLMNELDSVYGNNEALLPMLEMLLAQAWQSYSQRNSSLKDIDIARENNPDWILSNKQVGGVCYVDLFAGDLKGLKDKIPYFQELGLTYLHLMPLFKCPEGKSDGGYAVSSYRDVNPALGTIGDLREVIAALHEAGISAVVDFIFNHTSNEHEWAQRCAAGDPLFDNFYYIFPDRRMPDQYDRTLREIFPDQHPGGFSQLEDGRWVWTTFNSFQWDLNYSNPWVFRAMAGEMLFLANLGVDILRMDAVAFIWKQMGTSCENLPQAHALIRAFNAVMRIAAPAPFFKSEAIVHPDQVVQYIGQDECQIGYNPLQMALLWNTLATREVNLLHQALTYRHNLPEHTAWVNYVRSHDDIGWTFADEDAAYLGISGYDHRQFLNRFFVNRFDGSFARGVPFQYNPSTGDCRVSGTAAALVGLAQDDPHAVDRIKLLYSIALSTGGLPLIYLGDEVGTLNDDDWSQDSNKSDDSRWAHRPRYNEALYAQRNDPSTAAGQIYQGLRHMIAVRQSNPRFDGGRLVTFNTNNKHIIGYIRNNALLAFGNFSEYPQTVTAHTLQAMPFKAHDLIGGKTVSLNQDLTLQPYQVMWLEIA
For B3, in test [1], the apigenin glucosylation efficiency was found to be 0.0%. Further, the naringenin glucosylation efficiency in test [2] was 0.0%.

B4: V331N: ASNp amylosucrase single mutant (protein, UniProt Q9ZEU2 1-636, looked up, variant V331N)
Amylosucrase: MLTPTQQVGLILQYLKTRILDIYTPEQRAGIEKSEDWRQFSRRMDTHFPKLMNELDSVYGNNEALLPMLEMLLAQAWQSYSQRNSSLKDIDIARENNPDWILSNKQVGGVCYVDLFAGDLKGLKDKIPYFQELGLTYLHLMPLFKCPEGKSDGGYAVSSYRDVNPALGTIGDLREVIAALHEAGISAVVDFIFNHTSNEHEWAQRCAAGDPLFDNFYYIFPDRRMPDQYDRTLREIFPDQHPGGFSQLEDGRWVWTTFNSFQWDLNYSNPWVFRAMAGEMLFLANLGVDILRMDAVAFIWKQMGTSCENLPQAHALIRAFNAVMRIAAPANFFKSEAIVHPDQVVQYIGQDECQIGYNPLQMALLWNTLATREVNLLHQALTYRHNLPEHTAWVNYVRSHDDIGWTFADEDAAYLGISGYDHRQFLNRFFVNRFDGSFARGVPFQYNPSTGDCRVSGTAAALVGLAQDDPHAVDRIKLLYSIALSTGGLPLIYLGDEVGTLNDDDWSQDSNKSDDSRWAHRPRYNEALYAQRNDPSTAAGQIYQGLRHMIAVRQSNPRFDGGRLVTFNTNNKHIIGYIRNNALLAFGNFSEYPQTVTAHTLQAMPFKAHDLIGGKTVSLNQDLTLQPYQVMWLEIA
B4: the apigenin glucosylation efficiency in test [1] turned out to be 1.0%. For the same molecule, in test [2], the naringenin glucosylation efficiency is 0.0%.

B5: V331Q: ASNp amylosucrase single mutant (protein, UniProt Q9ZEU2 1-636, looked up, variant V331Q)
Amylosucrase: MLTPTQQVGLILQYLKTRILDIYTPEQRAGIEKSEDWRQFSRRMDTHFPKLMNELDSVYGNNEALLPMLEMLLAQAWQSYSQRNSSLKDIDIARENNPDWILSNKQVGGVCYVDLFAGDLKGLKDKIPYFQELGLTYLHLMPLFKCPEGKSDGGYAVSSYRDVNPALGTIGDLREVIAALHEAGISAVVDFIFNHTSNEHEWAQRCAAGDPLFDNFYYIFPDRRMPDQYDRTLREIFPDQHPGGFSQLEDGRWVWTTFNSFQWDLNYSNPWVFRAMAGEMLFLANLGVDILRMDAVAFIWKQMGTSCENLPQAHALIRAFNAVMRIAAPAQFFKSEAIVHPDQVVQYIGQDECQIGYNPLQMALLWNTLATREVNLLHQALTYRHNLPEHTAWVNYVRSHDDIGWTFADEDAAYLGISGYDHRQFLNRFFVNRFDGSFARGVPFQYNPSTGDCRVSGTAAALVGLAQDDPHAVDRIKLLYSIALSTGGLPLIYLGDEVGTLNDDDWSQDSNKSDDSRWAHRPRYNEALYAQRNDPSTAAGQIYQGLRHMIAVRQSNPRFDGGRLVTFNTNNKHIIGYIRNNALLAFGNFSEYPQTVTAHTLQAMPFKAHDLIGGKTVSLNQDLTLQPYQVMWLEIA
For the molecule B5, the apigenin glucosylation efficiency in test [1] is 0.2%. In addition, in test [2], the naringenin glucosylation efficiency was 6.8%.

B6: V331S: ASNp amylosucrase single mutant (protein, UniProt Q9ZEU2 1-636, looked up, variant V331S)
Amylosucrase: MLTPTQQVGLILQYLKTRILDIYTPEQRAGIEKSEDWRQFSRRMDTHFPKLMNELDSVYGNNEALLPMLEMLLAQAWQSYSQRNSSLKDIDIARENNPDWILSNKQVGGVCYVDLFAGDLKGLKDKIPYFQELGLTYLHLMPLFKCPEGKSDGGYAVSSYRDVNPALGTIGDLREVIAALHEAGISAVVDFIFNHTSNEHEWAQRCAAGDPLFDNFYYIFPDRRMPDQYDRTLREIFPDQHPGGFSQLEDGRWVWTTFNSFQWDLNYSNPWVFRAMAGEMLFLANLGVDILRMDAVAFIWKQMGTSCENLPQAHALIRAFNAVMRIAAPASFFKSEAIVHPDQVVQYIGQDECQIGYNPLQMALLWNTLATREVNLLHQALTYRHNLPEHTAWVNYVRSHDDIGWTFADEDAAYLGISGYDHRQFLNRFFVNRFDGSFARGVPFQYNPSTGDCRVSGTAAALVGLAQDDPHAVDRIKLLYSIALSTGGLPLIYLGDEVGTLNDDDWSQDSNKSDDSRWAHRPRYNEALYAQRNDPSTAAGQIYQGLRHMIAVRQSNPRFDGGRLVTFNTNNKHIIGYIRNNALLAFGNFSEYPQTVTAHTLQAMPFKAHDLIGGKTVSLNQDLTLQPYQVMWLEIA
As to B6, the apigenin glucosylation efficiency in test [1] amounted to 0.4%. Besides, the naringenin glucosylation efficiency in test [2] is reported as 6.7%.

B7: V331R: ASNp amylosucrase single mutant (protein, UniProt Q9ZEU2 1-636, looked up, variant V331R)
Amylosucrase: MLTPTQQVGLILQYLKTRILDIYTPEQRAGIEKSEDWRQFSRRMDTHFPKLMNELDSVYGNNEALLPMLEMLLAQAWQSYSQRNSSLKDIDIARENNPDWILSNKQVGGVCYVDLFAGDLKGLKDKIPYFQELGLTYLHLMPLFKCPEGKSDGGYAVSSYRDVNPALGTIGDLREVIAALHEAGISAVVDFIFNHTSNEHEWAQRCAAGDPLFDNFYYIFPDRRMPDQYDRTLREIFPDQHPGGFSQLEDGRWVWTTFNSFQWDLNYSNPWVFRAMAGEMLFLANLGVDILRMDAVAFIWKQMGTSCENLPQAHALIRAFNAVMRIAAPARFFKSEAIVHPDQVVQYIGQDECQIGYNPLQMALLWNTLATREVNLLHQALTYRHNLPEHTAWVNYVRSHDDIGWTFADEDAAYLGISGYDHRQFLNRFFVNRFDGSFARGVPFQYNPSTGDCRVSGTAAALVGLAQDDPHAVDRIKLLYSIALSTGGLPLIYLGDEVGTLNDDDWSQDSNKSDDSRWAHRPRYNEALYAQRNDPSTAAGQIYQGLRHMIAVRQSNPRFDGGRLVTFNTNNKHIIGYIRNNALLAFGNFSEYPQTVTAHTLQAMPFKAHDLIGGKTVSLNQDLTLQPYQVMWLEIA
As for B7, in test [1], the apigenin glucosylation efficiency amounted to 0.2%. In addition, in test [2], the naringenin glucosylation efficiency turned out to be 0.0%.

(Values after patent US10647739B2, “Flavonoids O-A-glucosylated on the B cycle, method for the production thereof and uses” (Institut National de la Recherche Agronomique, priority 2014, dated 2020).)
